{
  "source": "paper PMC11782559",
  "about": "“Innovative CDR grafting and computational methods for PD-1 specific nanobody design” (Frontiers in Bioinformatics, 2024)",
  "binders": {"B1": {"name": "designed PD-1-specific nanobody (Cemiplimab CDRs grafted onto Caplacizumab framework regions) (VHH)", "VHH": "EVQLVESGGGLVQPGGSLRLSCAASGFTFSNFGMGWFRQAPGKGRELVAAISGGGRDTYYPDSVEGRFTISRDNAKRMVYLQMNSLRAEDTAVYYCVKWGNIYFDYWGQGTQVTVSS", "notes": "CDRs of the Cemiplimab heavy chain grafted onto the framework regions of Caplacizumab; 117 residues, 12.5 kDa without tag; Gene inserted into pET-28a (+) at NdeI and XhoI; with His tag about 13.5 kDa; Surmise: this cloning usually gives an N-terminal His6 tag with a thrombin site from the vector; also called NB; designed nanobody; source: E. coli BL21 (DE3), pET-28a (+), purified (Ni-NTA, …)"}},
  "molecular_target": "T1, human PD-1 Fc recombinant protein (Homo sapiens, UniProt Q15116)",
  "T1 construct": "Programmed Cell Death Protein-1 (PD-1), human, bought as an Fc fusion; Ran at about 63 kDa in the blot; Surmise: the commercial product holds the extracellular domain of PD-1 fused to a human IgG1 Fc; The ELISA methods say only 'recombinant human PD-1'; also called recombinant human PD-1; Programmed Cell Death Protein-1; source: bought: Peprotech, Catalog # 310-40-1 MG",
  "T1 sequence (Q15116 25-170)": "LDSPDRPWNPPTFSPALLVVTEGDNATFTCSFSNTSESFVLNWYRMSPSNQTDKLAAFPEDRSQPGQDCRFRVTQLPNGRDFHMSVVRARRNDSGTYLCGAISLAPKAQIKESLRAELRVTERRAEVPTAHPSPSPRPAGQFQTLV",
  "test": "far-Western, overlay or dot blot; Western blot: PD-1 Fc (200 ng) separated on 12% SDS-PAGE (denatured), transferred to nitrocellulose, blocked with 5% milk in TBST, probed overnight at 4°C with 10 μg/mL purified nanobody, detected with anti-His tag HRP antibody",
  "details": "both partners purified",
  "data": [
    {"binder": "B1", "values": [
      {"measurement": "binding result", "value": "binds"}
    ]}
  ]
}
